The results in this text go back to the supplement of paper PMC9112550, “Optimization of the antimicrobial peptide Bac7 by deep mutational scanning” (BMC Biology, 2022).

In the data set the test system is Escherichia coli TOP10. Nature of the data set: shrunken log2 fold change of peptide-encoding DNA abundance (4.5 h post-induction vs induction); higher = less antimicrobial activity (less host growth inhibition). The settings on record: time post-induction: 4.5 h; library: site-saturation at positions 5, 18, 19, 20.
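Further: peptides expressed intracellularly from a pBAD plasmid library in pooled LB shake-flask culture, induced with 0.3% L-arabinose, DNA abundance read by NGS, three biological replicates, DESeq2 with apeglm shrinkage.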

Regarding RRIRRRPPRLPRPRPRPNIGPRP, the “shrunken log2 fold change” value is -0.89. In the case of RRIRNRPPRLPRPRPRPDDFPRP, the “shrunken log2 fold change” value is -0.00663. Take RRIRGRPPRLPRPRPRPVFWPRP: the “shrunken log2 fold change” value stood at 0.768. The result for RRIRWRPPRLPRPRPRPPDTPRP reads 0.525. For RRIRHRPPRLPRPRPRPVQSPRP, the “shrunken log2 fold change” value stood at 0.0377. As for RRIRYRPPRLPRPRPRPIPEPRP, the “shrunken log2 fold change” value stood at 0.0704.

For the sequence RRIRVRPPRLPRPRPRPEVSPRP, the “shrunken log2 fold change” value came out at 0.0554.

In the case of RRIRIRPPRLPRPRPRPGKDPRP, the “shrunken log2 fold change” value is 0.00215.

Take RRIRSRPPRLPRPRPRPWCWPRP: the “shrunken log2 fold change” value worked out at 0.0877. RRIRYRPPRLPRPRPRPRMHPRP: the “shrunken log2 fold change” value was -0.156. With RRIRCRPPRLPRPRPRPHVIPRP, the “shrunken log2 fold change” value is -0.245. The result for RRIRFRPPRLPRPRPRPDELPRP reads 0.0112; that for RRIRYRPPRLPRPRPRPLWYPRP, -0.824; that for RRIRSRPPRLPRPRPRPKPDPRP, 0.22.

Take RRIRNRPPRLPRPRPRPEWTPRP: the “shrunken log2 fold change” value was -0.0178. Consider RRIRIRPPRLPRPRPRPHKDPRP, for which the “shrunken log2 fold change” value is -0.447.

With RRIRQRPPRLPRPRPRPRAPPRP, the “shrunken log2 fold change” value amounted to 0.749. Regarding RRIRIRPPRLPRPRPRPNIRPRP, the “shrunken log2 fold change” value is -1.14. On to RRIRARPPRLPRPRPRPAMHPRP, for which the “shrunken log2 fold change” value is 0.589. In the case of RRIRLRPPRLPRPRPRPDKVPRP, the “shrunken log2 fold change” value is -0.0274. With RRIRERPPRLPRPRPRPIFLPRP, the “shrunken log2 fold change” value is -0.288.

For RRIRSRPPRLPRPRPRPQNPPRP, the “shrunken log2 fold change” value is -0.296. Regarding RRIRHRPPRLPRPRPRPNHKPRP, the “shrunken log2 fold change” value is -0.973.

In the case of RRIRTRPPRLPRPRPRPIFPPRP, the “shrunken log2 fold change” value worked out at 0.166.

For the sequence RRIRNRPPRLPRPRPRPGPHPRP, the “shrunken log2 fold change” value was 0.0143. The same measure for RRIRIRPPRLPRPRPRPFVRPRP: -0.0158. The result for RRIRMRPPRLPRPRPRPAQGPRP reads 3.7; that for RRIRARPPRLPRPRPRPCVPPRP, -0.0952.

Regarding RRIRMRPPRLPRPRPRPTTYPRP, the “shrunken log2 fold change” value stood at 0.0427. The result for RRIRQRPPRLPRPRPRPPRFPRP reads 1.51; that for RRIRERPPRLPRPRPRPHKGPRP, -0.194; that for RRIRKRPPRLPRPRPRPAEGPRP, 0.305. Consider RRIRYRPPRLPRPRPRPTMQPRP, for which the “shrunken log2 fold change” value was -0.0804. As to RRIRSRPPRLPRPRPRPKINPRP, the “shrunken log2 fold change” value is -0.424. Consider RRIRHRPPRLPRPRPRPAQNPRP, for which the “shrunken log2 fold change” value was 0.212. In the case of RRIRCRPPRLPRPRPRPCLNPRP, the “shrunken log2 fold change” value was -0.589. For RRIRMRPPRLPRPRPRPVPGPRP, the “shrunken log2 fold change” value worked out at 0.882. Regarding RRIRVRPPRLPRPRPRPEFIPRP, the “shrunken log2 fold change” value was -0.176.

Turning to RRIRIRPPRLPRPRPRPMKFPRP, the “shrunken log2 fold change” value was -0.387. Turning to RRIRERPPRLPRPRPRPQYMPRP, the “shrunken log2 fold change” value is -0.213.

For the sequence RRIRSRPPRLPRPRPRPKVWPRP, the “shrunken log2 fold change” value was 0.115. With RRIRHRPPRLPRPRPRPNKVPRP, the “shrunken log2 fold change” value is -0.238.

As to RRIRNRPPRLPRPRPRPAGPPRP, the “shrunken log2 fold change” value is -0.0019. On to RRIRCRPPRLPRPRPRPNPHPRP, for which the “shrunken log2 fold change” value was -0.158. RRIRLRPPRLPRPRPRPLKQPRP: the “shrunken log2 fold change” value is -0.0926. With RRIRKRPPRLPRPRPRPGDLPRP, the “shrunken log2 fold change” value came to 0.273. Regarding RRIRCRPPRLPRPRPRPWQWPRP, the “shrunken log2 fold change” value came out at 0.187. The same measure for RRIRHRPPRLPRPRPRPTDRPRP: 0.0577; for RRIRFRPPRLPRPRPRPATNPRP: -0.213.

For the sequence RRIRWRPPRLPRPRPRPRPHPRP, the “shrunken log2 fold change” value was 0.408. On to RRIRDRPPRLPRPRPRPHLTPRP, for which the “shrunken log2 fold change” value is 0.176. Turning to RRIRRRPPRLPRPRPRPMYLPRP, the “shrunken log2 fold change” value is -0.0501. The same measure for RRIRSRPPRLPRPRPRPVFKPRP: -0.29; for RRIRNRPPRLPRPRPRPFYWPRP: -0.0682; for RRIRWRPPRLPRPRPRPEKWPRP: 0.0948. In the case of RRIRPRPPRLPRPRPRPLASPRP, the “shrunken log2 fold change” value was 0.104. On to RRIRFRPPRLPRPRPRPCNPPRP, for which the “shrunken log2 fold change” value was -0.0333. As to RRIRIRPPRLPRPRPRPCCDPRP, the “shrunken log2 fold change” value was -0.67. As for RRIRCRPPRLPRPRPRPRRSPRP, the “shrunken log2 fold change” value was 0.762. The same measure for RRIRCRPPRLPRPRPRPLLRPRP: 0.88; for RRIRHRPPRLPRPRPRPGIMPRP: -0.566. Consider RRIRRRPPRLPRPRPRPPAIPRP, for which the “shrunken log2 fold change” value amounted to 1.03.

RRIRIRPPRLPRPRPRPNGIPRP: the “shrunken log2 fold change” value was -0.337. Take RRIRVRPPRLPRPRPRPRWVPRP: the “shrunken log2 fold change” value turned out to be 0.309. The result for RRIRLRPPRLPRPRPRPEQNPRP reads 0.41; that for RRIRPRPPRLPRPRPRPYHEPRP, -0.348; that for RRIRSRPPRLPRPRPRPTQCPRP, 0.23. The same measure for RRIRMRPPRLPRPRPRPADGPRP: 0.19; for RRIRDRPPRLPRPRPRPTWNPRP: -0.07.

Consider RRIRCRPPRLPRPRPRPKGFPRP, for which the “shrunken log2 fold change” value was 0.00848. As to RRIRFRPPRLPRPRPRPSSMPRP, the “shrunken log2 fold change” value is -0.965.

For the sequence RRIRCRPPRLPRPRPRPVKKPRP, the “shrunken log2 fold change” value came out at 0.0604. In the case of RRIRWRPPRLPRPRPRPFLLPRP, the “shrunken log2 fold change” value was -0.0846. The result for RRIRHRPPRLPRPRPRPMLDPRP reads 0.0917. Consider RRIRTRPPRLPRPRPRPPQRPRP, for which the “shrunken log2 fold change” value is 0.577. RRIRFRPPRLPRPRPRPAQEPRP: the “shrunken log2 fold change” value turned out to be 0.351.

With RRIRVRPPRLPRPRPRPSIVPRP, the “shrunken log2 fold change” value is -0.364.

As for RRIRKRPPRLPRPRPRPSRAPRP, the “shrunken log2 fold change” value was determined as 0.521. Consider RRIRCRPPRLPRPRPRPFWFPRP, for which the “shrunken log2 fold change” value is -0.245. The result for RRIRQRPPRLPRPRPRPEWEPRP reads 0.00902.

With RRIRGRPPRLPRPRPRPKGKPRP, the “shrunken log2 fold change” value came to 1.16.

As to RRIRWRPPRLPRPRPRPISKPRP, the “shrunken log2 fold change” value was -0.215. RRIRFRPPRLPRPRPRPFLCPRP: the “shrunken log2 fold change” value was -0.313. As for RRIRIRPPRLPRPRPRPHTSPRP, the “shrunken log2 fold change” value was -1.18.

With RRIRVRPPRLPRPRPRPQPTPRP, the “shrunken log2 fold change” value turned out to be 0.408. As for RRIRNRPPRLPRPRPRPYLKPRP, the “shrunken log2 fold change” value was -0.151. The result for RRIRGRPPRLPRPRPRPRHSPRP reads 0.242. For the sequence RRIRDRPPRLPRPRPRPLTKPRP, the “shrunken log2 fold change” value turned out to be 0.0084.

RRIRHRPPRLPRPRPRPEAIPRP: the “shrunken log2 fold change” value is -0.0296. RRIRERPPRLPRPRPRPINLPRP: the “shrunken log2 fold change” value is -0.338. As for RRIRCRPPRLPRPRPRPDTGPRP, the “shrunken log2 fold change” value is -0.879. For RRIRDRPPRLPRPRPRPNHTPRP, the “shrunken log2 fold change” value is -0.0643. Regarding RRIRWRPPRLPRPRPRPAMNPRP, the “shrunken log2 fold change” value is -0.326. On to RRIRNRPPRLPRPRPRPNNPPRP, for which the “shrunken log2 fold change” value was -0.511.

For the sequence RRIRMRPPRLPRPRPRPKSNPRP, the “shrunken log2 fold change” value is 0.815. The result for RRIRMRPPRLPRPRPRPKSVPRP reads 0.0926.

With RRIRKRPPRLPRPRPRPEKMPRP, the “shrunken log2 fold change” value is -0.0217. As to RRIRLRPPRLPRPRPRPFTDPRP, the “shrunken log2 fold change” value was -0.317. The result for RRIRNRPPRLPRPRPRPDWGPRP reads 0.128. Regarding RRIRYRPPRLPRPRPRPLFPPRP, the “shrunken log2 fold change” value is -0.643. Turning to RRIRKRPPRLPRPRPRPTKDPRP, the “shrunken log2 fold change” value came out at 0.522. With RRIRDRPPRLPRPRPRPFKEPRP, the “shrunken log2 fold change” value worked out at 0.0108.

RRIRRRPPRLPRPRPRPTLYPRP: the “shrunken log2 fold change” value was determined as 0.595. As for RRIRPRPPRLPRPRPRPTYVPRP, the “shrunken log2 fold change” value stood at 0.0486. With RRIRSRPPRLPRPRPRPINNPRP, the “shrunken log2 fold change” value is -0.647. Take RRIRARPPRLPRPRPRPKNQPRP: the “shrunken log2 fold change” value amounted to 0.249. As to RRIRNRPPRLPRPRPRPCCKPRP, the “shrunken log2 fold change” value is -0.274.

Consider RRIRLRPPRLPRPRPRPEICPRP, for which the “shrunken log2 fold change” value was -0.0881. RRIRMRPPRLPRPRPRPETYPRP: the “shrunken log2 fold change” value came to 0.451. In the case of RRIRHRPPRLPRPRPRPPSYPRP, the “shrunken log2 fold change” value is -0.266. For the sequence RRIRHRPPRLPRPRPRPVCMPRP, the “shrunken log2 fold change” value is -0.0845. Take RRIRGRPPRLPRPRPRPFSIPRP: the “shrunken log2 fold change” value is -0.0155. The same measure for RRIRLRPPRLPRPRPRPMCYPRP: -0.294. Take RRIRFRPPRLPRPRPRPYVWPRP: the “shrunken log2 fold change” value is 0.109. With RRIRDRPPRLPRPRPRPTMCPRP, the “shrunken log2 fold change” value is -0.107. For the sequence RRIRRRPPRLPRPRPRPQHEPRP, the “shrunken log2 fold change” value worked out at 0.343. The same measure for RRIRLRPPRLPRPRPRPSFRPRP: -0.358; for RRIRDRPPRLPRPRPRPPELPRP: 0.107. The result for RRIRERPPRLPRPRPRPDHEPRP reads -0.0943; that for RRIRERPPRLPRPRPRPALSPRP, 0.15; that for RRIRPRPPRLPRPRPRPQGVPRP, 0.07. Take RRIRPRPPRLPRPRPRPRWQPRP: the “shrunken log2 fold change” value is 0.754.

Consider RRIRVRPPRLPRPRPRPSKTPRP, for which the “shrunken log2 fold change” value was -0.61. Take RRIRSRPPRLPRPRPRPHVEPRP: the “shrunken log2 fold change” value turned out to be 0.121.

RRIRSRPPRLPRPRPRPKDYPRP: the “shrunken log2 fold change” value was -0.128.
